Bridges are numbered along the chain shown (N, C = ends).
B1: Retrocyclin-1 (RC-100) (peptide)
peptide: cyclo(GICRCICGRGICRCICGR)
modifications: disulfide 7-12, 5-14, 3-16
SMILES: CC[C@H](C)[C@@H]1NC(=O)CNC(=O)[C@H](CCCNC(=N)N)NC(=O)CNC(=O)[C@@H]2CSSC[C@H](NC1=O)C(=O)N[C@@H](CCCNC(=N)N)C(=O)N[C@H]1CSSC[C@H](NC(=O)[C@H](CCCNC(=N)N)NC(=O)[C@@H]3CSSC[C@H](NC(=O)[C@H]([C@@H](C)CC)NC1=O)C(=O)NCC(=O)N[C@@H](CCCNC(=N)N)C(=O)NCC(=O)N[C@@H]([C@@H](C)CC)C(=O)N3)C(=O)N[C@@H]([C@@H](C)CC)C(=O)N2
notes: Made by solid phase synthesis, then oxidized and cyclized; also called Retro1
B2: RC-101 (R9K-Retrocyclin) (peptide)
peptide: cyclo(GICRCICGKGICRCICGR)
modifications: disulfide (positions not given here)
notes: Synthetic cyclic congener of retrocyclin; It was unlabelled in the SPR experiments

Experiments:
[1] = target: T1, Recombinant HIV-1 BaL gp120 (HIV-1 (BaL)); test: SPR (Biacore 2000), gp120 BaL immobilized on chip, peptide in flow, 1:1 fit
T1 construct: domain: gp120; also called gp120(BaL); gp120 BaL

[2] = target: T2, Glycosylated HIV-1 gp120 (LAV) envelope glycoprotein (HIV-1 (LAV), UniProt P03377 33-516, limits assumed, glycosylated); test: SPR (Biacore 2000), gp120 LAV immobilized on CM5 chip, peptide in flow, 1:1 fit
T2 construct: domain: gp120; Bought
Procedure: Surface plasmon resonance (SPR) experiments were done with a Biacore 2000 system (Biacore, Inc., Piscataway, N.J.). The running buffer (pH 7.4) contained 10 mM HEPES, 150 mM NaCl, 3 mM EDTA and 0.005% polysorbate 20. The immobilized proteins (gp120-LAV and CD4) were dissolved at 20 μg/ml in 10 mM sodium acetate, pH 5.0 and immobilized on a Biacore CM5 sensor chip using the amine coupling method. The chip was activated by mixing 400 mM EDC (N-ethyl-N-(3-dimethylaminopropyl)-carbodiimide hydrochloride) and 100 mM N-hydroxysuccinimide. An immobilization level of 6000 response units (RU) was attained for each bound protein. Residual reactive groups on the chip surface were blocked using 1.0 Methanolamine/HCl, pH 8.5.
In those experiments, biosensor chips containing immobilized gp120 or CD4 were perfused with a 1 μg/ml solution of the peptides, and binding was measured by surface plasmon resonance.

[3] = target: T3, Recombinant human soluble CD4 (full-length 45 kDa glycosylated ectodomain) (human, UniProt P01730 26-396); test: SPR (Biacore 2000), soluble CD4 immobilized on CM5 chip, peptide in flow, 1:1 fit
T3 construct: extracellular domain; Immobilized on a CM5 chip by amine coupling

| Binder | Kd [1] [nM] | Kd [2] [nM] | Kd [3] [nM] |
| --- | --- | --- | --- |
| B1 | 29.2 | 35.4 | 31 |
| B2 | 20.5 | 31.2 | 28.6 |

Source: patent publication US20090264344A1 (University of California, published 2009)
